18 molecules from US20250163164A1 (LANOVA MEDICINES DEVELOPMENT, published 2025) can be followed below.

T1: human interleukin 13 receptor subunit alpha 2 (IL-13RA2) (human, UniProt Q14627 27-380)
T1 construct: whole, on cells; also called IL-13Rα2; CD213A2
T1 sequence (looked up): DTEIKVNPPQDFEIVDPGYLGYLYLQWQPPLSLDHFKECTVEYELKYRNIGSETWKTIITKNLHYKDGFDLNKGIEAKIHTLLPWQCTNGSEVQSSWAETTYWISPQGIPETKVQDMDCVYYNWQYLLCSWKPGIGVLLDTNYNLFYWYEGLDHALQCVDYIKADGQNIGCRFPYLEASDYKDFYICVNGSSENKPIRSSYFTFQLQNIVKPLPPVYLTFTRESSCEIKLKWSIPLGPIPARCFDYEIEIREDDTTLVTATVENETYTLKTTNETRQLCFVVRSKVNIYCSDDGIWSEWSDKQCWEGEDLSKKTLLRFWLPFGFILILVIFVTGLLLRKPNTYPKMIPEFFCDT

B1: 57F8H3F1 H3L3 hIgG1 (antibody, V domains shown)
VH: QVQLVQSGAEVVKPGASVKLSCKASGYTFTNYWMNWVKQAPGQGLEWIGRIDAYETETHYNQKFRDRATLTVDKSTSTVYMELSSLRSEDTAVYYCARGYGHYYGVDYWGQGTLVTVSS
VL: DIQLTQSPSSLSASVGDRVTITCRASENVGNFGISFVNWFQQKPGKAPKLLIYAASNLGSGDPARFSGSGSGTDFTLTISSLQPEDFATYFCQQSKGVPWTFGGGTKVEIK
notes: humanized, hIgG1
B2: 57F8H3F1 H4L4 hIgG1 (antibody, V domains shown)
VH: QVQLVQSGAEVVKPGASVKLSCKASGYTFTNYWMNWVKQRPGQGLEWIGRIDAYETETHYNQKFRDRAILTVDKSTSTAYMELRSLRSEDTAVYYCARGYGHYYGVDYWGQGTLVTVSS
VL: DIVLTQSPSSLSASVGDRATITCRASENVGNFGISFVNWFQQKPGKPPKLLIYAASNLGSGDPARFSGSGSGTDFTLTISSLQPEDFATYFCQQSKGVPWTFGGGTKLEIK
notes: humanized, hIgG1
B3: 72B4H4 H2L2 hIgG1 (antibody, V domains shown)
VH: QVQLVQSGAEVVKPGASVKVSCKASGYTFTNYWMNWVRQAPGQGLEWIGRIDAYAGETHYNQKFKDRVTMTVDTSTSTVYMELSSLRSEDTAVYYCARGYGDAYGMDHWGQGTLVTVSS
VL: DIQMTQSPSSLSASVGDRVTITCRASESVDNYGISFMNWFQQKPGKAPKLLIYAASRQGSGDPSRFSGSGSGTDFTLTISSLQPEDFATYFCQQSKEVPWTFGQGTKVEIK
notes: humanized, hIgG1
B4: 57F8H3F1 H4L3 hIgG1 (antibody, V domains shown)
VH: QVQLVQSGAEVVKPGASVKLSCKASGYTFTNYWMNWVKQRPGQGLEWIGRIDAYETETHYNQKFRDRAILTVDKSTSTAYMELRSLRSEDTAVYYCARGYGHYYGVDYWGQGTLVTVSS
VL: DIQLTQSPSSLSASVGDRVTITCRASENVGNFGISFVNWFQQKPGKAPKLLIYAASNLGSGDPARFSGSGSGTDFTLTISSLQPEDFATYFCQQSKGVPWTFGGGTKVEIK
notes: humanized, hIgG1
B5: 72B4H4 H1L2 hIgG1 (antibody, V domains shown)
VH: QVQLVQSGAEVKKPGASVKVSCKASGYTFTNYWMNWVRQAPGQGLEWMGRIDAYAGETHYNQKFKDRVTMTRDTSTSTVYMELSSLRSEDTAVYYCARGYGDAYGMDHWGQGTLVTVSS
VL: DIQMTQSPSSLSASVGDRVTITCRASESVDNYGISFMNWFQQKPGKAPKLLIYAASRQGSGDPSRFSGSGSGTDFTLTISSLQPEDFATYFCQQSKEVPWTFGQGTKVEIK
notes: humanized, hIgG1
B6: 72B4H4 H2L1 hIgG1 (antibody, V domains shown)
VH: QVQLVQSGAEVVKPGASVKVSCKASGYTFTNYWMNWVRQAPGQGLEWIGRIDAYAGETHYNQKFKDRVTMTVDTSTSTVYMELSSLRSEDTAVYYCARGYGDAYGMDHWGQGTLVTVSS
VL: DIQMTQSPSSLSASVGDRVTITCRASESVDNYGISFMNWYQQKPGKAPKLLIYAASRQGSGVPSRFSGSGSGTDFTLTISSLQPEDFATYYCQQSKEVPWTFGQGTKVEIK
notes: humanized, hIgG1
B7: 72B4H4 H2L3 hIgG1 (antibody, V domains shown)
VH: QVQLVQSGAEVVKPGASVKVSCKASGYTFTNYWMNWVRQAPGQGLEWIGRIDAYAGETHYNQKFKDRVTMTVDTSTSTVYMELSSLRSEDTAVYYCARGYGDAYGMDHWGQGTLVTVSS
VL: DIQLTQSPSSLSASVGDRVTITCRASESVDNYGISFMNWFQQKPGKAPKLLIYAASRQGSGDPARFSGSGSGTDFTLTISSLQPEDFATYFCQQSKEVPWTFGGGTKVEIK
notes: humanized, hIgG1
B8: 72B4H4 H2L4 hIgG1 (antibody, V domains shown)
VH: QVQLVQSGAEVVKPGASVKVSCKASGYTFTNYWMNWVRQAPGQGLEWIGRIDAYAGETHYNQKFKDRVTMTVDTSTSTVYMELSSLRSEDTAVYYCARGYGDAYGMDHWGQGTLVTVSS
VL: DIVLTQSPSSLSASVGDRATITCRASESVDNYGISFMNWFQQKPGKPPKLLIYAASRQGSGDPARFSGSGSGTDFTLTISSLQPEDFATYFCQQSKEVPWTFGGGTKLEIK
notes: humanized, hIgG1
B9: 57F8H3F1 H4L2 hIgG1 (antibody, V domains shown)
VH: QVQLVQSGAEVVKPGASVKLSCKASGYTFTNYWMNWVKQRPGQGLEWIGRIDAYETETHYNQKFRDRAILTVDKSTSTAYMELRSLRSEDTAVYYCARGYGHYYGVDYWGQGTLVTVSS
VL: DIQMTQSPSSLSASVGDRVTITCRASENVGNFGISFVNWFQQKPGKAPKLLIYAASNLGSGDPSRFSGSGSGTDFTLTISSLQPEDFATYFCQQSKGVPWTFGQGTKVEIK
notes: humanized, hIgG1
B10: 57F8H3F1 H3L4 hIgG1 (antibody, V domains shown)
VH: QVQLVQSGAEVVKPGASVKLSCKASGYTFTNYWMNWVKQAPGQGLEWIGRIDAYETETHYNQKFRDRATLTVDKSTSTVYMELSSLRSEDTAVYYCARGYGHYYGVDYWGQGTLVTVSS
VL: DIVLTQSPSSLSASVGDRATITCRASENVGNFGISFVNWFQQKPGKPPKLLIYAASNLGSGDPARFSGSGSGTDFTLTISSLQPEDFATYFCQQSKGVPWTFGGGTKLEIK
notes: humanized, hIgG1
B11: 72B4H4 H3L3 hIgG1 (antibody, V domains shown)
VH: QVQLVQSGAEVVKPGASVKLSCKASGYTFTNYWMNWVKQAPGQGLEWIGRIDAYAGETHYNQKFKDRATLTVDKSTSTVYMELSSLRSEDTAVYYCARGYGDAYGMDHWGQGTLVTVSS
VL: DIQLTQSPSSLSASVGDRVTITCRASESVDNYGISFMNWFQQKPGKAPKLLIYAASRQGSGDPARFSGSGSGTDFTLTISSLQPEDFATYFCQQSKEVPWTFGGGTKVEIK
notes: humanized, hIgG1
B12: 72B4H4 H3L1 hIgG1 (antibody, V domains shown)
VH: QVQLVQSGAEVVKPGASVKLSCKASGYTFTNYWMNWVKQAPGQGLEWIGRIDAYAGETHYNQKFKDRATLTVDKSTSTVYMELSSLRSEDTAVYYCARGYGDAYGMDHWGQGTLVTVSS
VL: DIQMTQSPSSLSASVGDRVTITCRASESVDNYGISFMNWYQQKPGKAPKLLIYAASRQGSGVPSRFSGSGSGTDFTLTISSLQPEDFATYYCQQSKEVPWTFGQGTKVEIK
notes: humanized, hIgG1
B13: 72B4H4 H3L2 hIgG1 (antibody, V domains shown)
VH: QVQLVQSGAEVVKPGASVKLSCKASGYTFTNYWMNWVKQAPGQGLEWIGRIDAYAGETHYNQKFKDRATLTVDKSTSTVYMELSSLRSEDTAVYYCARGYGDAYGMDHWGQGTLVTVSS
VL: DIQMTQSPSSLSASVGDRVTITCRASESVDNYGISFMNWFQQKPGKAPKLLIYAASRQGSGDPSRFSGSGSGTDFTLTISSLQPEDFATYFCQQSKEVPWTFGQGTKVEIK
notes: humanized, hIgG1
B14: 72B4H4 H1L1 hIgG1 (antibody, V domains shown)
VH: QVQLVQSGAEVKKPGASVKVSCKASGYTFTNYWMNWVRQAPGQGLEWMGRIDAYAGETHYNQKFKDRVTMTRDTSTSTVYMELSSLRSEDTAVYYCARGYGDAYGMDHWGQGTLVTVSS
VL: DIQMTQSPSSLSASVGDRVTITCRASESVDNYGISFMNWYQQKPGKAPKLLIYAASRQGSGVPSRFSGSGSGTDFTLTISSLQPEDFATYYCQQSKEVPWTFGQGTKVEIK
notes: humanized, hIgG1
B15: 72B4H4 H1L3 hIgG1 (antibody, V domains shown)
VH: QVQLVQSGAEVKKPGASVKVSCKASGYTFTNYWMNWVRQAPGQGLEWMGRIDAYAGETHYNQKFKDRVTMTRDTSTSTVYMELSSLRSEDTAVYYCARGYGDAYGMDHWGQGTLVTVSS
VL: DIQLTQSPSSLSASVGDRVTITCRASESVDNYGISFMNWFQQKPGKAPKLLIYAASRQGSGDPARFSGSGSGTDFTLTISSLQPEDFATYFCQQSKEVPWTFGGGTKVEIK
notes: humanized, hIgG1
B16: 72B4H4 H1L4 hIgG1 (antibody, V domains shown)
VH: QVQLVQSGAEVKKPGASVKVSCKASGYTFTNYWMNWVRQAPGQGLEWMGRIDAYAGETHYNQKFKDRVTMTRDTSTSTVYMELSSLRSEDTAVYYCARGYGDAYGMDHWGQGTLVTVSS
VL: DIVLTQSPSSLSASVGDRATITCRASESVDNYGISFMNWFQQKPGKPPKLLIYAASRQGSGDPARFSGSGSGTDFTLTISSLQPEDFATYFCQQSKEVPWTFGGGTKLEIK
notes: humanized, hIgG1
B17: 57F8H3F1 H4L1 hIgG1 (antibody, V domains shown)
VH: QVQLVQSGAEVVKPGASVKLSCKASGYTFTNYWMNWVKQRPGQGLEWIGRIDAYETETHYNQKFRDRAILTVDKSTSTAYMELRSLRSEDTAVYYCARGYGHYYGVDYWGQGTLVTVSS
VL: DIQMTQSPSSLSASVGDRVTITCRASENVGNFGISFVNWYQQKPGKAPKLLIYAASNLGSGVPSRFSGSGSGTDFTLTISSLQPEDFATYYCQQSKGVPWTFGQGTKVEIK
notes: humanized, hIgG1
B18: 72B4H4 H3L4 hIgG1 (antibody, V domains shown)
VH: QVQLVQSGAEVVKPGASVKLSCKASGYTFTNYWMNWVKQAPGQGLEWIGRIDAYAGETHYNQKFKDRATLTVDKSTSTVYMELSSLRSEDTAVYYCARGYGDAYGMDHWGQGTLVTVSS
VL: DIVLTQSPSSLSASVGDRATITCRASESVDNYGISFMNWFQQKPGKPPKLLIYAASRQGSGDPARFSGSGSGTDFTLTISSLQPEDFATYFCQQSKEVPWTFGGGTKLEIK
notes: humanized, hIgG1

This test addresses T1, human interleukin 13 receptor subunit …. The test is described as follows: FACS on A375 cells. The protocol:
A375 cells that endogenously expressed IL-13RA2, were harvested from flasks. 100 μl of 1×10⁶ cells/ml of cells were incubated with primary humanized antibodies in 4-fold serial dilutions starting from 200 nM to 0.003 nM for 30 minutes on ice. After being washed with 200 μl of FACS buffer twice, cells were incubated with secondary antibody for 30 minutes on ice. Cells were washed with 200 μl of FACS buffer twice and analyzed by FACS.
In the case of B1, the EC50 was determined as 1.62 nM and the “Top (MFI)” value is 7610 MFI.
On to B2, for which the EC50 came out at 0.91 nM and the “Top (MFI)” value worked out at 7270 MFI.
On to B3, for which a half-maximal response (EC50) required 1.48 nM and the “Top (MFI)” value was found to be 8700 MFI.
As to B4, the EC50 is 0.8 nM and the “Top (MFI)” value came to 7180 MFI.
Take B5: the 50% effective concentration (EC50) was 0.81 nM and the “Top (MFI)” value is 8540 MFI.
The corresponding values for B6 are 2.75 nM and 8360 MFI.
B7: the EC50 came to 0.83 nM and the “Top (MFI)” value was determined as 8420 MFI.
For B8, the response was half-maximal at 1.18 nM (EC50) and the “Top (MFI)” value came to 8630 MFI.
For B9, the EC50 worked out at 0.75 nM and the “Top (MFI)” value was 7340 MFI.
The corresponding values for B10 are 1.3 nM and 7610 MFI.
In the case of B11, the half-maximal effective concentration (EC50) came to 1.66 nM and the “Top (MFI)” value is 8780 MFI.
For the molecule B12, a half-maximal effect (EC50) was put at 1.14 nM and the “Top (MFI)” value was 8830 MFI.
In the case of B13, the EC50 was 1.44 nM and the “Top (MFI)” value was determined as 8550 MFI.
Take B14: the half-maximal effective concentration (EC50) was found to be 0.54 nM and the “Top (MFI)” value was 8440 MFI.
As for B15, a half-maximal effect (EC50) was put at 1 nM and the “Top (MFI)” value came to 8900 MFI.
Turning to B16, a half-maximal effect (EC50) was put at 0.98 nM and the “Top (MFI)” value turned out to be 9040 MFI.
As to B17, the response was half-maximal at 0.42 nM (EC50) and the “Top (MFI)” value worked out at 7350 MFI.
Regarding B18, it took 1.36 nM to reach a half-maximal effect (EC50) and the “Top (MFI)” value came to 8770 MFI.

One may read the EC50 as the concentration at which the effect is half-maximal. Lower therefore signals a more potent agent.
